Measurements from the supplement of paper PMC10724198.
± gives the standard deviation of the averaged measurements.

What was measured:
Saccharomyces cerevisiae [1] = assay: protein stability index of tFT-peptide fusion (C-terminal peptide) (PSI (0-1 scale)); higher = more stable (slower turnover)
Procedure: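 MPS profiling in S. cerevisiae of the tFT-X12 degron library: putative degron peptides plus stable controls, 12 aa, fused to the C-terminus of a sfGFP-mCherry timer. Cells are FACS-sorted into 8 mCherry/sfGFP bins and deep-sequenced. PSI runs from 0 (unstable) to 1 (stable). Backgrounds are wild type, das1Δ and doa10Δ at 30 °C, and wild type, das1Δ, cdc34-1 and cdc53-1 at 37 °C; 2-3 technical replicates each.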

Saccharomyces cerevisiae [2] = assay: as above; details: genetic background: wild type; temperature: 30 C
[3] = genetic background: cdc34-1, temperature: 37 C
[4] = genetic background: cdc53-1, temperature: 37 C
[5] = genetic background: das1 deletion, temperature: 30 C
[6] = genetic background: das1 deletion, temperature: 37 C
[7] = genetic background: doa10 deletion, temperature: 30 C
[8] = genetic background: wild type, temperature: 30 C
[9] = genetic background: wild type, temperature: 37 C
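Note: PSI is a weighted mean of sequencing reads over stability bins, variants kept only with over 10 reads, mCherry proximal and sfGFP distal, peptide attached via GGGS linker.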

| Sequence | protein stability index (Saccharomyces cerevisiae [1]; [3]) | protein stability index (Saccharomyces cerevisiae [1]; [4]) | protein stability index (Saccharomyces cerevisiae [1]; [5]) | protein stability index (Saccharomyces cerevisiae [1]; [6]) | protein stability index (Saccharomyces cerevisiae [1]; [7]) | protein stability index (Saccharomyces cerevisiae [1]; [8]) | protein stability index (Saccharomyces cerevisiae [1]; [9]) | protein stability index (Saccharomyces cerevisiae [2]) |
| --- | --- | --- | --- | --- | --- | --- | --- | --- |
| FFACSLLFVLVF | 0.0985 ± 0.0033 | 0.175 ± 0.022 | 0.177 ± 0.022 | 0.27 ± 0.0076 | 0.1392 ± 0.0012 | 0.17 ± 0.027 | 0.226 ± 0.014 | 0.228 ± 0.0075 |
| FFAIFSLLLSFT | 0.449 ± 0.015 | 0.482 ± 0.0083 | 0.401 ± 0.028 | 0.532 ± 0.012 | 0.399 ± 0.007 | 0.4 ± 0.014 | 0.527 ± 0.0072 | 0.459 ± 0.026 |
| FFALYGHILGLF | 0.702 ± 0.02 | 0.7821 ± 0.0041 | 0.611 ± 0.023 | 0.7525 ± 0.0025 | 0.472 ± 0.028 | 0.491 ± 0.016 | 0.685 ± 0.052 | 0.4957 ± 0.0022 |
| FFFPFLCIAVSL | 0.464 ± 0.036 | 0.474 ± 0.016 | 0.418 ± 0.034 | 0.472 ± 0.0053 | 0.4007 ± 0.0018 | 0.413 ± 0.018 | 0.436 ± 0.011 | 0.458 ± 0.022 |
| FFICCPLLVVCS | 0.0277 ± 0.012 | 0.0453 ± 0.027 | 0.091 ± 0.022 | 0.0716 ± 0.018 | 0.064 ± 0.016 | 0.0665 ± 0.035 | 0.0677 ± 0.021 | 0.109 ± 0.041 |
| FFILVFFSLLST | 0.2927 ± 0.0014 | 0.445 ± 0.018 | 0.283 ± 0.049 | 0.441 ± 0.032 | 0.244 ± 0.041 | 0.274 ± 0.033 | 0.4056 ± 0.0022 | 0.404 ± 0.032 |
| FFLFILYFGSCF | 0.358 ± 0.025 | 0.422 ± 0.0051 | 0.349 ± 0.034 | 0.481 ± 0.0073 | 0.362 ± 0.017 | 0.329 ± 0.012 | 0.448 ± 0.017 | 0.399 ± 0.029 |
| FFLFLVCLFFFS | 0.405 ± 0.016 | 0.36 ± 0.1 | 0.358 ± 0.032 | 0.487 ± 0.011 | 0.36 ± 0.049 | 0.355 ± 0.031 | 0.4333 ± 0.0037 | 0.37 ± 0.026 |
| FFLLSVVLKYSV | 0.0374 ± 0.0046 | 0.08659 ± 0.00036 | 0.103 ± 0.029 | 0.174 ± 0.0019 | 0.093 ± 0.021 | 0.0922 ± 0.021 | 0.14 ± 0.0075 | 0.19 ± 0.015 |
| FFRFNCVFWLFL | 0.509 ± 0.0099 | 0.551 ± 0.033 | 0.443 ± 0.021 | 0.604 ± 0.034 | 0.211 ± 0.0028 | 0.233 ± 0.016 | 0.428 ± 0.053 | 0.3129 ± 0.0019 |
| FFRLFAPLLVVL | 0.113 ± 0.02 | 0.0677 ± 0.015 | 0.188 ± 0.028 | 0.23 ± 0.033 | 0.2621 ± 0.0019 | 0.178 ± 0.019 | 0.1836 ± 0.0014 | 0.212 ± 0.01 |
| FFSQLFLEIVAA | 0.0642 ± 0.024 | 0.0709 ± 0.031 | 0.179 ± 0.03 | 0.196 ± 0.011 | 0.14 ± 0.018 | 0.175 ± 0.029 | 0.171 ± 0.027 | 0.257 ± 0.031 |
| FFVFSFVLFFPL | 0.347 ± 0.0076 | 0.427 ± 0.054 | 0.305 ± 0.046 | 0.456 ± 0.025 | 0.307 ± 0.006 | 0.322 ± 0.029 | 0.444 ± 0.022 | 0.369 ± 0.049 |
| FFVLGPVVMSIH | 0.278 ± 0.046 | 0.383 ± 0.032 | 0.285 ± 0.031 | 0.423 ± 0.02 | 0.2657 ± 0.0021 | 0.266 ± 0.038 | 0.4054 ± 0.0027 | 0.3849 ± 0.0033 |
| FFVYFFLLLFWF | 0.171 ± 0.015 | 0.0838 ± 0.023 | 0.213 ± 0.029 | 0.233 ± 0.027 | 0.272 ± 0.028 | 0.188 ± 0.015 | 0.196 ± 0.0034 | 0.208 ± 0.0049 |
| FGARCSLSPLVT | 0.7249 ± 0.0062 | 0.753 ± 0.017 | 0.618 ± 0.014 | 0.7463 ± 0.0025 | 0.639 ± 0.035 | 0.652 ± 0.019 | 0.6977 ± 0.0039 | 0.547 ± 0.1 |
| FGCLFILRCSFL | 0.429 ± 0.047 | 0.487 ± 0.00067 | 0.349 ± 0.035 | 0.5384 ± 0.00075 | 0.29 ± 0.0031 | 0.304 ± 0.026 | 0.4966 ± 0.0043 | 0.422 ± 0.0099 |
| FGKGRSLLLVFS | 0.548 ± 0.02 | 0.597 ± 0.022 | 0.378 ± 0.044 | 0.582 ± 0.0092 | 0.347 ± 0.015 | 0.395 ± 0.013 | 0.5765 ± 0.0039 | 0.475 ± 0.016 |
| FGRAVWSRFCIV | 0.604 ± 0.044 | 0.735 ± 0.029 | 0.601 ± 0.0099 | 0.736 ± 0.0076 | 0.13 ± 0.015 | 0.128 ± 0.03 | 0.177 ± 0.032 | 0.172 ± 0.064 |
| FGVLLLFLFFLP | 0.347 ± 0.0038 | 0.444 ± 0.02 | 0.337 ± 0.022 | 0.4673 ± 0.0036 | 0.322 ± 0.0086 | 0.323 ± 0.0085 | 0.427 ± 0.0068 | 0.413 ± 0.041 |

| Sequence | protein stability index (Saccharomyces cerevisiae [1]; [3]) | protein stability index (Saccharomyces cerevisiae [1]; [4]) | protein stability index (Saccharomyces cerevisiae [1]; [5]) | protein stability index (Saccharomyces cerevisiae [1]; [6]) | protein stability index (Saccharomyces cerevisiae [1]; [7]) | protein stability index (Saccharomyces cerevisiae [1]; [8]) | protein stability index (Saccharomyces cerevisiae [1]; [9]) | protein stability index (Saccharomyces cerevisiae [2]) |
| --- | --- | --- | --- | --- | --- | --- | --- | --- |
| FHRSVVRLWLRN | 0.49 ± 0.06 | 0.619 ± 0.024 | 0.604 ± 0.02 | 0.679 ± 0.0092 | 0.114 ± 0.0044 | 0.104 ± 0.031 | 0.181 ± 0.066 | 0.301 ± 0.041 |
| FLAPPFLPPPPA | 0.693 ± 0.021 | 0.7351 ± 0.00039 | 0.672 ± 0.014 | 0.758 ± 0.016 | 0.683 ± 0.02 | 0.705 ± 0.011 | 0.737 ± 0.015 | 0.748 ± 0.016 |
| FLCLLASFVVCF | 0.3271 ± 0.00067 | 0.312 ± 0.008 | 0.281 ± 0.039 | 0.384 ± 0.029 | 0.249 ± 0.0083 | 0.285 ± 0.028 | 0.336 ± 0.015 | 0.363 ± 0.008 |
| FLFFWRASLFFW | 0.116 ± 0.0025 | 0.164 ± 0.0095 | 0.183 ± 0.029 | 0.278 ± 0.027 | 0.178 ± 0.018 | 0.15 ± 0.029 | 0.191 ± 0.022 | 0.229 ± 0.023 |
| FLIYMFRHCFFH | 0.537 ± 0.071 | 0.626 ± 0.034 | 0.593 ± 0.015 | 0.676 ± 0.039 | 0.268 ± 0.013 | 0.278 ± 0.028 | 0.393 ± 0.018 | 0.345 ± 0.029 |
| FLMCVFFLCFSN | 0.304 ± 0.031 | 0.41 ± 0.051 | 0.308 ± 0.024 | 0.472 ± 0.015 | 0.208 ± 0.0021 | 0.22 ± 0.019 | 0.325 ± 0.029 | 0.34 ± 0.028 |
| FLSLPLFILFLS | 0.229 ± 0.036 | 0.232 ± 0.041 | 0.283 ± 0.029 | 0.39 ± 0.02 | 0.1217 ± 0.00068 | 0.0821 ± 0.013 | 0.119 ± 0.0033 | 0.132 ± 0.014 |
| FLSLSFLLLHFP | 0.398 ± 0.018 | 0.39044 ± 0.00026 | 0.385 ± 0.04 | 0.535 ± 0.0059 | 0.543 ± 0.017 | 0.434 ± 0.041 | 0.479 ± 0.005 | 0.471 ± 0.064 |
| FLVLFYCTFWVR | 0.162 ± 0.0078 | 0.242 ± 0.032 | 0.222 ± 0.019 | 0.3245 ± 0.0025 | 0.197 ± 0.006 | 0.211 ± 0.042 | 0.349 ± 0.071 | 0.329 ± 0.089 |
| FLVPLSPMLLSA | 0.446 ± 0.011 | 0.451 ± 0.005 | 0.375 ± 0.031 | 0.4942 ± 0.0011 | 0.323 ± 0.012 | 0.347 ± 0.019 | 0.463 ± 0.014 | 0.4 ± 0.019 |
| FMCCFWFFWLGF | 0.522 ± 0.041 | 0.518 ± 0.0095 | 0.421 ± 0.024 | 0.53 ± 0.0084 | 0.451 ± 0.006 | 0.438 ± 0.0098 | 0.501 ± 0.0061 | 0.459 ± 0.031 |
| FNLFWPVSAFVV | 0.506 ± 0.061 | 0.563 ± 0.011 | 0.436 ± 0.03 | 0.5749 ± 0.0047 | 0.211 ± 0.0037 | 0.254 ± 0.0078 | 0.398 ± 0.044 | 0.374 ± 0.019 |
| FNMLFVVRLLYM | 0.37 ± 0.033 | 0.418 ± 0.0046 | 0.334 ± 0.053 | 0.473 ± 0.026 | 0.259 ± 0.027 | 0.257 ± 0.045 | 0.396 ± 0.0043 | 0.365 ± 0.0057 |
| FPFFLLAAPFLA | 0.564 ± 0.007 | 0.621 ± 0.0096 | 0.546 ± 0.019 | 0.6439 ± 0.0013 | 0.16 ± 0.0077 | 0.19 ± 0.026 | 0.295 ± 0.026 | 0.237 ± 0.036 |
| FPFFVFRVWFGA | 0.4642 ± 0.0036 | 0.535 ± 0.01 | 0.414 ± 0.026 | 0.565 ± 0.006 | 0.32953 ± 0.00015 | 0.346 ± 0.033 | 0.502 ± 0.022 | 0.464 ± 0.014 |
| FPPFALLLIIND | 0.475 ± 0.015 | 0.54 ± 0.039 | 0.396 ± 0.023 | 0.581 ± 0.058 | 0.415 ± 0.0098 | 0.421 ± 0.029 | 0.525 ± 0.0097 | 0.406 ± 0.089 |
| FPRQFVYLPLLF | 0.647 ± 0.064 | 0.709 ± 0.025 | 0.555 ± 0.011 | 0.696 ± 0.017 | 0.372 ± 0.018 | 0.402 ± 0.032 | 0.595 ± 0.02 | 0.487 ± 0.011 |
| FQPLELFFVCVF | 0.0866 ± 0.04 | 0.154 ± 0.025 | 0.199 ± 0.02 | 0.235 ± 0.014 | 0.163 ± 0.014 | 0.181 ± 0.023 | 0.212 ± 0.016 | 0.305 ± 0.014 |
| FRCFVLPYFGRF | 0.608 ± 0.032 | 0.699 ± 0.021 | 0.647 ± 0.0081 | 0.7 ± 0.0079 | 0.372 ± 0.037 | 0.37 ± 0.015 | 0.5489 ± 0.0039 | 0.435 ± 0.036 |
